Assays:
[1] = test system: TQKPLGLS (SEQ ID NO: 4)
[2] = test system: PANLVAPDP (SEQ ID NO: 6)
[3] = test system: RSKYLATA (SEQ ID NO: 8)
[4] = test system: RPLALWRS (SEQ ID NO: 3)
[5] = test system: PVSLRSGS (SEQ ID NO: 1)
[6] = test system: IVGRPRHQGV (SEQ ID NO: 7)
[7] = test system: APAGLIVPYN (SEQ ID NO: 5)

MMP-9, sequence (chain, as listed by the source): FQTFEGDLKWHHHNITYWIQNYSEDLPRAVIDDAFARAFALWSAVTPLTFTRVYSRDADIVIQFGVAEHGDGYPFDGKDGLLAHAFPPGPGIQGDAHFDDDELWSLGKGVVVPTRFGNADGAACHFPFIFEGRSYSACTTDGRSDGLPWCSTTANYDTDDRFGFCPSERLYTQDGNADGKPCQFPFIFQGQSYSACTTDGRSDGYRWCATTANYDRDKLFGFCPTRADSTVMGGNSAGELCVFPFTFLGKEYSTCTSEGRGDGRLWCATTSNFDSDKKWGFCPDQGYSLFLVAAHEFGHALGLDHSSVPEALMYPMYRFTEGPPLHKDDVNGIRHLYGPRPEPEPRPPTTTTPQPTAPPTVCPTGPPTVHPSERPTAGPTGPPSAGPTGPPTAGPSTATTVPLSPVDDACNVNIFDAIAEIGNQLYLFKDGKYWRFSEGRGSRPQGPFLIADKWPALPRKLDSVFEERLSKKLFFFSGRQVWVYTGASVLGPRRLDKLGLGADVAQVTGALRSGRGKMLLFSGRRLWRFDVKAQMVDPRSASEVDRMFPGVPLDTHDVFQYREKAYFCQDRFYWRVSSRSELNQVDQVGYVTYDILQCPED
MMP-8, sequence (chain, as listed by the source): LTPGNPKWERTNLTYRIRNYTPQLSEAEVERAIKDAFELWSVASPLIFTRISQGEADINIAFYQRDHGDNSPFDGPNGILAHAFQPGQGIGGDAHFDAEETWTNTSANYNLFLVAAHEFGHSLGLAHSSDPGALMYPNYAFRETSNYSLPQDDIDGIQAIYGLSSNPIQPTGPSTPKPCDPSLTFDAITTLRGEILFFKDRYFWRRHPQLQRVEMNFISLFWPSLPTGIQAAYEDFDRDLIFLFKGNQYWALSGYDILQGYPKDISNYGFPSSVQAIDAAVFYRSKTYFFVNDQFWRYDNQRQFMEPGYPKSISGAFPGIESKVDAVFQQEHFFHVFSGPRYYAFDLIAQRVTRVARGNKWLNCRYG
MMP-10, sequence (chain, as listed by the source): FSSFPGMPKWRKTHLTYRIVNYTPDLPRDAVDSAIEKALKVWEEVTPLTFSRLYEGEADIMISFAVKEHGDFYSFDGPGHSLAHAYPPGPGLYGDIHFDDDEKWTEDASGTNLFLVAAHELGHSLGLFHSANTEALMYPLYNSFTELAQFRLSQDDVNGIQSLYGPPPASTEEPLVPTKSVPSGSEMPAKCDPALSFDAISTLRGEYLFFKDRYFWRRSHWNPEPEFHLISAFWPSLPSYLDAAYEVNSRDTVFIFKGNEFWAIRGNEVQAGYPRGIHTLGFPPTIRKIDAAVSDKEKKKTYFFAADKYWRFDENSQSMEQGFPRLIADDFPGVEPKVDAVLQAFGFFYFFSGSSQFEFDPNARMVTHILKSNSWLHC

| Substance | initial rate of cleavage by recombinant protease [1] [µM/h] | initial rate of cleavage by recombinant protease [2] [µM/h] | initial rate of cleavage by recombinant protease [3] [µM/h] | initial rate of cleavage by recombinant protease [4] [µM/h] | initial rate of cleavage by recombinant protease [5] [µM/h] | initial rate of cleavage by recombinant protease [6] [µM/h] | initial rate of cleavage by recombinant protease [7] [µM/h] |
| --- | --- | --- | --- | --- | --- | --- | --- |
| MMP-8 | 0.1 | 7.2 | 0 | 0.2 | 0.1 | 0 | 0.5 |
| MMP-9 | 0.3 | 8.8 | 0 | 0.2 | 6.5 | 0 | 1.8 |
| MMP-10 | 0 | 1.8 | 0 | 0 | 0 | 0 | 1.6 |

— patent US20230144608
